Measurements as given in patent US10876098B2, “Polynucleotide, host cell and a method to recombinantly produce the protein encoded by said polynucleotide having peroxygenative activity” (CONSEJO SUPERIOR DE INVESTIGACIONES CIENTIFICAS (CSIC), priority 2015, dated 2020).

What was measured:
[1] = Optimum pH for naphthalene; format: biochemical
[2] = Dual colorimetric HTS, DMP (peroxidase activity on microplate); format: biochemical; settings: parental PaDa-I; S. cerevisiae microcultures
Experimental: The mother plates were centrifuged (Eppendorf 5810R centrifuge, Germany) for 10 minutes at 3,500 RPM and 4° C. 20 μL of supernatant were transferred from these mother plates to two replica daughter plates with the help of a Freedom EVO liquid handling robot (Tecan, Switzerland).
The plates were briefly agitated and initial absorbance was measured at 469 nm and 510 nm, respectively, using a plate reader for such purpose ([…]ax Plus 384, Molecular Devices, USA). […] The plates were kept at room temperature until they turned orange (DMP) or red (naphthol-Fast Red), at which time the absorbance was newly measured. The values were normalised against the parental of each plate. In order to rule out false positives, two re-screenings were carried out, in addition to a third re-screening wherein kinetic stability was determined (T50) (P. Molina-Espeja, et al. Appl. Environ. Microbiol. 2014. 80, 3496-3507).

B1: JaWa: PaDa-I variant with added mutations G241D and R257K, SEQ ID NO: 24 (protein)
chain: MKYFPLFPTLVYAVGVVAFPDYASLAGLSQQELDAIIPTLEAREPGLPPGPLENSSAKLVNDEAHPWKPLRPGDIRGPCPGLNTLASHGYLPRNGVATPAQIINAVQEGFNFDNQAAIFATYAAHLVDGNLITDLLSIGRKTRLTGPDPPPPASVGGLNEHGTFEGDASMTRGDAFFGNNHDFNETLFEQLVDYSNRFGGGKYNLTVAGELRFKRIQDSIATNPNFSFVDFRFFTAYGETTFPANLFVDGRRDDGQLDMDAARSFFQFSRMPDDFFRAPSPRSDTGVEVVVQAHPMQPGKNVGKINSYTVDPTSSDFSTPCLMYEKFVNITVKSLYPNPTVQLRKALNTNLDFLFQGVAAGCTQVFPYGRD
Optimum pH for naphthalene [1]: 6.0 | peroxidase activity on microplate relative to parental [2]: reduced to half
